According to publication PMC7755716:

System: DtxR (Corynebacterium glutamicum (derived from KCTC No. 1445))
Assay: EMSA
Conditions: 150 uM Mn2+, 5 mM Mg2+, 50 mM Tris-HCl pH 7.5, 5 mM MgCl2, 40 mM KCl, 5% glycerol, 1 mM DTT, 150 uM MnCl2, 30 min at room temperature, 200 ng DNA, 0-350 ng DtxR dimer in 10 ul, 15% …

## NCgl1959 regulatory region, wild type (399 bp)
reference
  binding signal (% of wild-type affinity): 100

## NCgl1959 regulatory region, C-14G (399 bp)
  binding signal (% of wild-type affinity): 40
